Measurements as given in IntAct's records for PubMed 31515488.

B1: Thialysine N-epsilon-acetyltransferase (Homo sapiens), Q96F10 (parent)
chain: MASVRIREAKEGDCGDILRLIRELAEFEKLSDQVKISEEALRADGFGDNPFYHCLVAEILPAPGKLLGPCVVGYGIYYFIYSTWKGRTIYLEDIYVMPEYRGQGIGSKIIKKVAEVALDKGCSQFRLAVLDWNQRAMDLYKALGAQDLTEAEGWHFFCFQGEATRKLAGK
B2: ATPase PAAT (Homo sapiens), Q9H8K7 (parent)
chain: METRTEDGGLTRRPTLASSWDVAGGALTHSLLLTRAGLGPGDFDWEELLAPPAPGQDLVILKRNHNNKDENPCFLYLRCGPDGGEEIASIGILSSARNMEVYLGEEYCGTSRGKNVCTVLDDSEHEKIILYKKNLKLESSTHACKIKLLSFGERQCVFISKVVVHMRSVFANSSTSSPALGSRIDLDKVQTIMESMGSKLSPGAQQLMDMVRCQQRNCIPIGEQLQSVLGNSGYKHMIGLQSSSTLGTLNKSSSTPFPFRTGLTSGNVTENLQTYIDKSTQLPGGENSTKLDECKVMPQNHSFLENDLKNAMASFLPKKVSDNSNIPNSELLPFLQNLCSQVNHLHVGNKTECQENITKHGERILGVGMEEQSICSYLEKILSKNMELMEKKLMDYIDQRIHELQEHIDDKIALLLDLLQNPNSPPTGIPLRHYDSGERLSNGER
partner: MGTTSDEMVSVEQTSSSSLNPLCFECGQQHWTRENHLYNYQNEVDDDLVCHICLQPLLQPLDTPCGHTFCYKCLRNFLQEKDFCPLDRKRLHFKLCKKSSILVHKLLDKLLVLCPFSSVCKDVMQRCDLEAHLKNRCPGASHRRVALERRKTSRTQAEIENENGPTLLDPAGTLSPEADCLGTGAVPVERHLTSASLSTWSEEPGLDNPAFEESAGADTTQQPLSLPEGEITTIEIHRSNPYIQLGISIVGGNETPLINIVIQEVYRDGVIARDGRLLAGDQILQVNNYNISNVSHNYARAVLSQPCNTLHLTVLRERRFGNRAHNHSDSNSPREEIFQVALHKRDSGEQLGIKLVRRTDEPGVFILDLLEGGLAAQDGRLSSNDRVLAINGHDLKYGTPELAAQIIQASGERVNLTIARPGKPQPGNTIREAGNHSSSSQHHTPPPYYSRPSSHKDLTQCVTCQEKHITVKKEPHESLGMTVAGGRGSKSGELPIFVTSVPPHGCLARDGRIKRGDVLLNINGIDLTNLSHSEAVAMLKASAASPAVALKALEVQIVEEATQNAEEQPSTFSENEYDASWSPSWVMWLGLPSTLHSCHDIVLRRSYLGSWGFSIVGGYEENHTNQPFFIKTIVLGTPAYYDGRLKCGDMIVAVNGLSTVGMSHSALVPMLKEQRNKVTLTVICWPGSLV
B3: 2'-5'-oligoadenylate synthase 1 (Homo sapiens), P00973 (parent)
chain: MMDLRNTPAKSLDKFIEDYLLPDTCFRMQINHAIDIICGFLKERCFRGSSYPVCVSKVVKGGSSGKGTTLRGRSDADLVVFLSPLTTFQDQLNRRGEFIQEIRRQLEACQRERAFSVKFEVQAPRWGNPRALSFVLSSLQLGEGVEFDVLPAFDALGQLTGGYKPNPQIYVKLIEECTDLQKEGEFSTCFTELQRDFLKQRPTKLKSLIRLVKHWYQNCKKKLGKLPPQYALELLTVYAWERGSMKTHFNTAQGFRTVLELVINYQQLCIYWTKYYDFKNPIIEKYLRRQLTKPRPVILDPADPTGNLGGGDPKGWRQLAQEAEAWLNYPCFKNWDGSPVSSWILLAESNSADDETDDPRRYQKYGYIGTHEYPHFSHRPSTLQAASTPQAEEDWTCTIL
B4: Keratin, type II cytoskeletal 2 epidermal (Homo sapiens), P35908 (parent)
chain: MSCQISCKSRGRGGGGGGFRGFSSGSAVVSGGSRRSTSSFSCLSRHGGGGGGFGGGGFGSRSLVGLGGTKSISISVAGGGGGFGAAGGFGGRGGGFGGGSSFGGGSGFSGGGFGGGGFGGGRFGGFGGPGGVGGLGGPGGFGPGGYPGGIHEVSVNQSLLQPLNVKVDPEIQNVKAQEREQIKTLNNKFASFIDKVRFLEQQNQVLQTKWELLQQMNVGTRPINLEPIFQGYIDSLKRYLDGLTAERTSQNSELNNMQDLVEDYKKKYEDEINKRTAAENDFVTLKKDVDNAYMIKVELQSKVDLLNQEIEFLKVLYDAEISQIHQSVTDTNVILSMDNSRNLDLDSIIAEVKAQYEEIAQRSKEEAEALYHSKYEELQVTVGRHGDSLKEIKIEISELNRVIQRLQGEIAHVKKQCKNVQDAIADAEQRGEHALKDARNKLNDLEEALQQAKEDLARLLRDYQELMNVKLALDVEIATYRKLLEGEECRMSGDLSSNVTVSVTSSTISSNVASKAAFGGSGGRGSSSGGGYSSGSSSYGSGGRQSGSRGGSGGGGSISGGGYGSGGGSGGRYGSGGGSKGGSISGGGYGSGGGKHSSGGGSRGGSSSGGGYGSGGGGSSSVKGSSGEAFGSSVTFSFR
B5: Syntenin-2 (Homo sapiens), Q9H190 (parent)
chain: MSSLYPSLEDLKVDQAIQAQVRASPKMPALPVQATAISPPPVLYPNLAELENYMGLSLSSQEVQESLLQIPEGDSTAVSGPGPGQMVAPVTGYSLGVRRAEIKPGVREIHLCKDERGKTGLRLRKVDQGLFVQLVQANTPASLVGLRFGDQLLQIDGRDCAGWSSHKAHQVVKKASGDKIVVVVRDRPFQRTVTMHKDSMGHVGFVIKKGKIVSLVKGSSAARNGLLTNHYVCEVDGQNVIGLKDKKIMEILATAGNVVTLTIIPSVIYEHMVKKLPPVLLHHTMDHSIPDA
partner: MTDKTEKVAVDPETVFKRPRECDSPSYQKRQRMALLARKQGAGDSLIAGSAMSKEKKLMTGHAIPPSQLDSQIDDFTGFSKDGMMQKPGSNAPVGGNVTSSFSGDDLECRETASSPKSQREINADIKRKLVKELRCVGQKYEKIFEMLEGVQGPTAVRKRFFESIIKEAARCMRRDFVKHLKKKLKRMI
B6: Forkhead box protein R1 (Homo sapiens), Q6PIV2 (parent)
chain: MGNELFLAFTTSHLPLAEQKLARYKLRIVKPPKLPLEKKPNPDKDGPDYEPNLWMWVNPNIVYPPGKLEVSGRRKREDLTSTLPSSQPPQKEEDASCSEAAGVESLSQSSSKRSPPRKRFAFSPSTWELTEEEEAEDQEDSSSMALPSPHKRAPLQSRRLRQASSQAGRLWSRPPLNYFHLIALALRNSSPCGLNVQQIYSFTRKHFPFFRTAPEGWKNTVRHNLCFRDSFEKVPVSMQGGASTRPRSCLWKLTEEGHRRFAEEARALASTRLESIQQCMSQPDVMPFLFDL
partner: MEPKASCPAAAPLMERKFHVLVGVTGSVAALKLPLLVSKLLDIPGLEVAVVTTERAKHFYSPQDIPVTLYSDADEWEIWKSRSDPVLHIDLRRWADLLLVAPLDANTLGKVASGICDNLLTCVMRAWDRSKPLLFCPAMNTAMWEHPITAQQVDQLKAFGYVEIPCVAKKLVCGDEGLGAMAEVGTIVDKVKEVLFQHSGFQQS
B7: Spermatogenesis-associated protein 2 (Homo sapiens), Q9UM82 (parent)
chain: MGKPSSMDTKFKDDLFRKYVQFHESKVDTTTSRQRPGSDECLRVAASTLLSLHKVDPFYRFRLIQFYEVVESSLRSLSSSSLRALHGAFSMLETVGINLFLYPWKKEFRSIKTYTGPFVYYVKSTLLEEDIRAILSCMGYTPELGTAYKLRELVETLQVKMVSFELFLAKVECEQMLEIHSQVKDKGYSELDIVSERKSSAEDVRGCSDALRRRAEGREHLTASMSRVALQKSASERAAKDYYKPRVTKPSRSVDAYDSYWESRKPPLKASLSLRKEPVATDVGDDLKDEIIRPSPSLLTMASSPHGSPDVLPPASPSNGPALLRGTYFSTQDDVDLYTDSEPRATYRRQDALRPDVWLLRNDAHSLYHKRSPPAKESALSKCQSCGLSCSSSLCQRCDSLLTCPPASKPSAFPSKASTHDSLAHGASLREKYPGQTQGLDRLPHLHSKSKPSTTPTSRCGFCNRPGATNTCTQCSKVSCDACLSAYHYDPCYKKSELHKFMPNNQLNYKSTQLSHLVYR
partner: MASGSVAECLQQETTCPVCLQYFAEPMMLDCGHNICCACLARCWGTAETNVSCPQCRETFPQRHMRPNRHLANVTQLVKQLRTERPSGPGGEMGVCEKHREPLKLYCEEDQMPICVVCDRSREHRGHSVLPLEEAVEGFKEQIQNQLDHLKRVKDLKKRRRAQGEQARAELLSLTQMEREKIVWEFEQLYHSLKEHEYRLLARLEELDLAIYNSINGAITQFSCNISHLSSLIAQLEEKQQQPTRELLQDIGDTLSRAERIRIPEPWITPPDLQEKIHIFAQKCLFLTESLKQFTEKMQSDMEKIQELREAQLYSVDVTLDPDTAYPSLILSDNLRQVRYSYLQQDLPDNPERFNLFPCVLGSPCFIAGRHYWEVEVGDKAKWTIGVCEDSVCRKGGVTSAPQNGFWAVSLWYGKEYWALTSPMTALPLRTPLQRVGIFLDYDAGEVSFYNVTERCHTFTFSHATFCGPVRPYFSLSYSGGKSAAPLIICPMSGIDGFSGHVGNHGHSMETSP

Variants of: B1
Details: with sat1_human SAT1, P21673
Chain of sat1_human SAT1, P21673 (P21673 whole entry): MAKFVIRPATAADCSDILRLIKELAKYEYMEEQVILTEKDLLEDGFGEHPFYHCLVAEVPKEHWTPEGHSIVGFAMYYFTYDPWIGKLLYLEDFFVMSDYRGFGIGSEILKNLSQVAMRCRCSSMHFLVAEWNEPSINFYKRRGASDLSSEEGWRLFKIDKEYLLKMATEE

| effect of a mutation on the interaction | Variant |
| --- | --- |
| disrupting interaction strength | R126C |

Variants of: B2
Details: with lnx2_human LNX2, Q8N448

| effect of a mutation on the interaction | Variant |
| --- | --- |
| with no effect | G8R |

Variants of: B3
Details: with actn1_human ACTN1, P12814
Chain of actn1_human ACTN1, P12814 (P12814 whole entry): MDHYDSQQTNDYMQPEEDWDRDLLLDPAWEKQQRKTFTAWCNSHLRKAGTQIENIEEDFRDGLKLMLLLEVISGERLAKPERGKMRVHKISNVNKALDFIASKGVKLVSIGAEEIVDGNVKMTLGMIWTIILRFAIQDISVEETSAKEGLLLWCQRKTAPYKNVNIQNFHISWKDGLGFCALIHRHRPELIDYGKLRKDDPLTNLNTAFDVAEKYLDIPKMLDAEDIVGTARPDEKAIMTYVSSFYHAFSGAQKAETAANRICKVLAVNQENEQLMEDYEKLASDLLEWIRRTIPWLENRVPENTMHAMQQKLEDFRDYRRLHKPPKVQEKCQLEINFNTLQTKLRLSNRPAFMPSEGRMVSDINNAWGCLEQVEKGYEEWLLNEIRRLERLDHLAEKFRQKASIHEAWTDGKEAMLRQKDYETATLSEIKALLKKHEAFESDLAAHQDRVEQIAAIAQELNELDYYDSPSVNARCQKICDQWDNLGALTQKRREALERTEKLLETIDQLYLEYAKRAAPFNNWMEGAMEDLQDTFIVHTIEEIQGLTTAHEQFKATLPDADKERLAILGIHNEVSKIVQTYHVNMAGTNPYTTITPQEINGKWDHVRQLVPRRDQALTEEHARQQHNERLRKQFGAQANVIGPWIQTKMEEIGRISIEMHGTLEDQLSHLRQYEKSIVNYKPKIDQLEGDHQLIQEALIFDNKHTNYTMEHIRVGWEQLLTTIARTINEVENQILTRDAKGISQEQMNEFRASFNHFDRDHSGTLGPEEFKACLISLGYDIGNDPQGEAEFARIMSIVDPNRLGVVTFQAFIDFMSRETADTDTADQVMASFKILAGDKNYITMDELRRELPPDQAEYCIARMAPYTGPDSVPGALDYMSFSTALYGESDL

| effect of a mutation on the interaction | Variant |
| --- | --- |
| disrupting interaction strength | L327P |

Variants of: B4
Details: with KRT19, P08727
Chain of KRT19, P08727 (P08727 whole entry): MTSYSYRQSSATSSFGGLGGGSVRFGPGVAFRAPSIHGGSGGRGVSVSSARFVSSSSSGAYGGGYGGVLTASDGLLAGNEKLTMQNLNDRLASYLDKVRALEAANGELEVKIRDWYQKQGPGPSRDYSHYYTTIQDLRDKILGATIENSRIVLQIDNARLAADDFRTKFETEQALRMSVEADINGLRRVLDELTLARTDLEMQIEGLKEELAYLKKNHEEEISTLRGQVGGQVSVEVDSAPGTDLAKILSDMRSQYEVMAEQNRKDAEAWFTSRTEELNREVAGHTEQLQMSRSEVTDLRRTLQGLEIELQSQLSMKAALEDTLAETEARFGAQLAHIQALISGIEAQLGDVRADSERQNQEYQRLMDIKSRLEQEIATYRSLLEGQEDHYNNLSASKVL

| effect of a mutation on the interaction | Variant |
| --- | --- |
| with no effect | A517G |

Variants of: B5
Details: with ct457_human CT45A7, P0DMV0

| effect of a mutation on the interaction | Variant |
| --- | --- |
| disrupting interaction strength | G225R |
| disrupting interaction strength | V182M |
| disrupting interaction strength | G242R |

Variants of: B6
Details: with coac_human PPCDC

| effect of a mutation on the interaction | Variant |
| --- | --- |
| with no effect | W127C |
| with no effect | A8T |
| disrupting interaction strength | E18G |

Variants of: B7
Details: with tri27_human TRIM27, P14373

| effect of a mutation on the interaction | Variant |
| --- | --- |
| disrupting interaction strength | L443F |
